Source: the DeepSol protein solubility set

Assay: soluble on expression in E. coli; label from the status in PepcDB or PDB records

Sequence	soluble on expression in E. coli
MSRFIPIELHHASRLLNHGPTVLITSFDEQSQRRNIMAAAWSMPVEFEPPRVAIVVDKSTWTRELIEHNGKFGIVIPGVAATNWTWAVGSVSGRDEDKFNCYGIPVVRGPVFGLPLVEEKCLAWMECRLLPATSAQEEYDTLFGEVVSAAADARVFVEGRWQFDDDKLNTLHHLGAGTFVTSGKRVTAG	soluble
MAHHHHHHMFKCATRCLLDTKTVPLKPQRPFKLHTAGRTDMAPLPTQAVYDAEQLKQSLALMFRIRRMESLCDQSYKLKKIRGFCHLYIGQEAIPAGMENVLTFEDPIITGYRDHGWYISRGGKPEDVFAEMFGRQGGCSKGKGGSMHMYRVDNGFYGGNGIVGAQVSIGAGLAWRFAMENRDSPKHVAVTFYGDGAANQGQIYESMNIAALQRLPVIFAVENNHFGMGTSAARGSYQAEFYRRGDYIPGIKVDGMDVLAVQEGTRYARDYCMSGKGPIVMELDCYRYMGHSMSDPDNQYRTKSDIQHVKQERDCIRKMREFMATEGIMTEDEMSKMEKDVKKEVDQDLQKAQKQPMTKLDELFTDIYVGEQYEHRTCQGTVYHKP	not soluble
MQRGLLVLHASAIAAAGKGAIFMGDKGAGKSTTASALIRAGHELLTDDVVALDLARPDAPMIVAGFPQIKLAADAAAAISLGRAEVRPQVHPAIEKMQHRLHGAFSGGMVPATRIYVLERGLEHHHHHH	not soluble
MSLILASLVRYYRRLATETDETGNPKVPSYGFSEEKIGWILVLDKEGRLKTVVPNLTADKKPQPKLMSVPRPEKRTSGIKPNFLWDKTAYALGVEANKNKAEAKEKPFTPSEKTFEAFKQYHLDLLQNSEDEGLQALCRFLQNWQPAHFAAENLPAEMLDSNTAFSLEKPTALIHKREAAQTLWAGCLKSDEALESLCLISGDTAPIARLHPAIKGVFGGQSSGGSIISFNKEAFSSFGKEQGANAPVSEQSAFAYTTALNYLLRRENNHCLTIGDASTVFWAEADDIVDEGHHHHHH	not soluble
MLPDPPRDPFNNLDPAQTVRVLPRHLAGPGQADLETIWAFPFDDGWHLHQGLEGMVFAISPCARLWTRFAPKPEERGADTWTIGMDRAPFGPRAWEITFDATTPAELLRDVHTELLDLYLEDRHSEKNHLVEDPTAPHEVYTPLLTHGWSHSVKTDGTQTFLPPEGLGGVRHRYATTGSDGPVWRAWGGYPSAPHWQAQFSAGAPTTLAAAFTASLISTEPLHRAVKQIPFHTRRHLYVAPAAAPQPPSHLPPAPPSAPHPAGRARLEHHHHHH	soluble
MSLVKIKIFVNELLTDVEENTTAYKVRDSYNNKCDVLVLNGYPIKTDMTLCENDKLTLIQKGVKPSLDELESLLIARHTPNIHNKLKKGKVAILGLGGLGSNIAISLARIGVGELLLIDYDVVEPSNLNRQQYFIDDIGKLKTDAMIENIKKINPFIKLNKRDIFLNKNNMDTIKDSDLIIEAFDDASCKAQVCNYVLINLKDKYLIASSGMAGYYDSNIITTKKIKDRFYICGDFVNEAKFGEGLMAPRVAICANHMANLATQILIDMEGHHHHHH	soluble
SKAVIVIPARYGSSRLPGKPLLDIVGKPMIQHVYERALQVAGVAEVWVATDDPRVEQAVQAFGGKAIMTRNDHESGTDRLVEVMHKVEADIYINLQGDEPMIRPRDVETLLQGMRDDPALPVATLCHAISAAEAAEPSTVKVVVNTRQDALYFSRSPIPYPRNAEKARYLKHVGIYAYRRDVLQNYSQLPESMPEQAESLEQLRLMNAGINIRTFEVAATGPGVDTPACLEKVRALMAQELAENA	soluble
MSLTRIVLPGGAGLVGQNLVARLKARGYTNLVVLDKHEANLDVLRSVHPDITAVFADLAEPGDWARHFEGADVVVMLQAQIGAPTREPFVRNNIDSTRCVLEVIKQHAIPYTVHISSSVVKSVGEDWYTETKREQEAIVLASGIGCVVLRPTLMFGWFDRKHLGWLSRFMQRVPVFPIPGSGRYMRQPLYVGDFCNVIISCIDSRIQGQTFDITGLERIDYIDIIRQIKRVTRARCAIVRIPYGLFHILLKVYALFSKNPPFTADQLKALTAGDEFDVIDWERIFAIRATPFAQAMEETFNDPTYSHIALEEGHHHHHH	soluble
SEWNLRRMESELRQINPDLLQPSKSFKKPSSGTITINVGGYLYAAQRHTLAKHPGSLLEEMVTGKKPVLHVDSMGNTFIDRDGPIFRHILNFLRLGELVLPEDFKETELLRREANFYRLSELAQALQDWEQQQATQREPAFLEVTDSHERSQGLRVYCSDNTFIEKVKNRLVQISKSRLDGFPEEFEVSSNIIQFRHFIKSEQGSRLVLKQDSTFLCTLECLKLETVMLALKGGFRLITSLDSSRGSVVQCEALHFVK	soluble
MSLTASPIVVFDLDGTLIDTAPDLINALNFILVREGMPAVPMAVARNMIGQGARRLLERGLELDGRVIAQDDVNRLTVDFIDYYAAHIADESRPFEGLEATLDELSESGYRFAVCTNKLEWLSKLLLDRLGLSPRFAAICGADTFGVAKPDPAILRETVAKAGGDLSAAIMVGDAGPDVGVARRAGVPVIGVEFGYTEVPIAELQPDLLVGHMRELPNAVGRLLPRREGHHHHHH	soluble
MITTRLHGRLGNQMFQYAAARGLAARLGTQVALDTRLAESRGEGVLTRVFDLDLAQPDQLPPLKGDGLLRHGAWRLLGLAPRFRREHGLGYNAAIETWDDGTYLHGYWQSERYFAHIAARIRADFAFPAFSNSQNAEMAARIGDTDAISLHVRRGDYVALAAHTLCDQRYYAAALTRLLEGVAGDPVVYLFSDDPAWARDNLALPVQKVVVDFNGPETDFEDMRLMSLCRHNIIGNSSFSWWAAWLNAHPGKRIAAPASWFGDAKLHNPDLLPPDWLKIEVLEHHHHHH	not soluble
MGGSHHHHHHGMASPLLTQQIQDEDDQYSLVASLDNVRNLSTILKAIHFREHATCFATKNGIKVTVENAKCVQANAFIQAGIFQEFKVQEESVTFRINLTVLLDCLSIFGSSPMPGTLTALRMCYQGYGYPLMLFLEEGGVVTVCKITTQEPEETLDFDFCSTNVINKIILQSEGLREAFSELDMTSEVLQITMSPDKPYFRLSTFGNAGSSHLDYPKDSDLMEAFHCNQTQVNRYKISLLKPSTKALVLSCKVSIRTDNRGFLSLQYMIRNEDGQICFVEYYCCPDEEVPESES	not soluble
MGSDKIHHHHHHMEHIFQAHSPGEAGEILQQNWEHWLMTTARWREILTYDPRPATGCSPKEILWTKNKAQLYHYQCSSERRYRTPVLMIYALINRPYVLDLTPGSSLVEYLVNEGFDVYLLDWGEFEWEDRDITYADLVYDYIATAARKVARSAGSKEISIIGYCMGGTMSTLYAALFDRPVLKNLVYLAAPIDFNRAGTYDVWLKAPGYDPDRIADTMELVPKSFIDWGTRMLNPLANYWGTYTRLWKTLEEGKSVHFWKVLNKWSSDNINFPGGAYRDWIRDFYQGNKLIKNQVVLRGKRVQLQRIKANILAMVGLRDHIVMPHQTAAALTYLGGNDKTYMEFPVGHGGLVLGETARMRVFPEIAYWLGERSEELSEE	not soluble
MYEVTKFGGEGKRLEDYREIIGDEALEAIKAKAENLKDKSFVHVNSTSFGGGVAEILHNLVPLMRDVGIDARWFVIEGTNEFFNVTKSFHNALQGNKELRLTEEMKKLYLEINKKNAEDIDLTQFDYVLIHDPQPAPLIEFYEKRQPWIWRCHIDLSDPNLEFWKFLRQFVEKYDRYIFHMEEYVQEDLNQEKVVIMPPSIDPLSEKNMELEHHHHHH	not soluble
MSLSFSAKVKGEICRYIDISKEEALAQISAIMKVCGTLAFSGRQISFKMTTENPASARLMFTILKDYFDIHAKLMVKKSNSLKKNNIYMVVVTEEMGVKKLLEITGILREIDGIMSLDYHIDENLVDTEEKKKAYIRGAFIGGGSISNPEKTYHLEFVTHSQEYAEDLGKLINTFGLKAKVIQRKNSYIVYIKEGEQIVDLLNIIGAHTALLELENIRIMKEMRNNVNRLVNCETANLSKTVNAAVRQVESIKLIEREIGLARLPKNLREVAELRLTYPEESLKELGEMLEPPVGKSGVNHRLRKIEKIAEELRTGNEGHHHHHH	soluble
MGSDKIHHHHHHMRVAIIGMGTAGVSVLRELVKHPKFNQLDIDLYDDKVNMGQGVPFQNDSSELLINMPSKKMSLNLDDETEFWKWYKQQTDFNFDEPAYLPRFVFGHYMKSYLSMFTKKYPNISTNYNKVQEIYTNSNIDETNLTYYICTTNSEQSWQAYDYVFLTCGTFAYHDPYNLKGKKGYIATPYPTYNTLDEVNELDDIAIIGTGLASLDVVRYVAAHHPKLPITMTSRSAHLPSVRGTMIDVTFKYLTKDKLNDIKKHHFGNAPLDTLVSLFLKECAEYDIDFKKLVYRRTGNHIADLKYDLARPTEMGIFQSMIEHLKENLNWIWNSLSIEDQHQFNQKYSKMIQLNSNPMPPRTAELIIELIENKSLILKKDLEDVKHDGKLYYFSYKNQESVDIYNVVINATGAKSHLNELDQDDQLIKNLENRQIVQAHPMGGIQIIPETNQVISPRFGTLTNMIAIGQMTNGVNKLRNGVKMIVEQVAHKVSQLYDALESNEQQQRSDNQ	not soluble
NKFECNLVHSKVPMGKFYFRSEPNNKISFISDIRGEGKEWQGATLISQNAPWGEELYRKVESSLTVTKPSRRFVFRKGAPSLMKAIAGGSWITLVLEGKDASALSEVRIPTIQIQKALGEFNACRERLPK	not soluble
MSELIIYNGKVYTEDGKIDNGYIHVKDGQIVAIGEVDDKAAIDNDTTNKIQVIDAKGHHVLPGFIDIHIHGGYGQDAMDGSYDGLKYLSENLLSEGTTSYLATTMTQSTDKIDNALTNIAKYEAEQDVHNAAEIVGIHLEGPFISENKVGAQHPQYVVRPFIDKIKHFQETANGLIKIMTFAPEVEGAKEALETYKDDIIFSIGHTVATYEEAVEAVERGAKHVTHLYNAATPFQHREPGVFGAAWLNDALHTEMIVDGTHSHPASVAIAYRMKGNERFYLITDAMRAKGMPEGEYDLGGQKVTVQSQQARLANGALAGSILKMNHGLRNLISFTGDTLDHLWRVTSLNQAIALGIDDRKGSIKVNKDADLVILDDDMNVKSTIKQGKVHTFS	not soluble
MSLKKNIYPNKEGCPVEFTLDVIGGKWKGILFYHMIDGKKRFNEFRRICPSITQRMLTLQLRELEADGIVHREVYHQVPPKVEYSLTEFGRTLEPIVLQMKEWGESNRDVLESYRSNGLVKDQQKEGGSHHHHHH	soluble
MAHHHHHHMYGGNFSIPEFILKHEKYEKERLKIKRNKYLKRNIYKDNYSFIYFIFLHNINEHVEITTNNFDLLKGQLEELKKNTNNHIKGIILKNVIKSNNNNYSYFSKLYIPITNIYTCMPDNICSREKNKNPESKPFCDLIVSGYKNQMMNKIYEKFKKLGNQYV	not soluble
MVSTTQSRSLKAMGEEIWKNKTEKINTELFTLTYGSIVAQLCQDYERDFNKVNDHLYSMGYNIGCRLIEDFLARTALPRCENLVKTSEVLSKCAFKIFLNITPNITNWSHNKDTFSLILDENPLADFVELPMDAMKSLWYSNILCGVLKGSLEMVQLDCDVWFVSDILRGDSQTEIKVKLNRILKDEIPIGED	soluble
MGSDKIHHHHHHMGIKIPNMKPNYSLDDMRCFCMVAQYGSFKQAAVALQMPLSTLSRRIAKLEQDLALRLFNRDAHRVQLTFAGQRYYRRSAPIFDELDNVAACLQQDRNEAKGTIRISAPINFSVQVLVHHFNAFMRQYPDIELDLKLSNQTIDIDEEAMDLAFRIGHHSATHWIGRQLTNIRFAICGPANLDVSHIKAPADLAGLPTVLCSPMLTWSLQHIHSGEKQAYTATDNIRLKVDDMSLLTEVIAGGIGVGFIPDYHAQPLLESGKIQHILPAWSNQARGCEMLYRDRENIPYRVRLFIDFMLQRFKSNDGVM	not soluble
EKEKDTIAAEHKQEASVLLNLHRNKINYLIGETMARMTSLSIAIDRPVDIKKMQSILEKTFDSEPRFSGLYFLNAKGDVTASTTELKTKVNLADRSFFIKAKETKKTVISDSYSSRITGQPIFTICVPVLDSKRNVTDYLVAAIQIDYLKNLINLLSPDVYIEVVNQDGKMIFASGQASHAEDQKPVSGYLDDISWNMKVYPNPVTIEELSKSL	soluble
